Laboratory results published in article PMC10995120.

Target: GFP-CD16a (Homo sapiens) (UniProt P08637)
Assay: SPR

Chain of UniProt P08637 (P08637 other isoform, or with tags, fused parts or gaps): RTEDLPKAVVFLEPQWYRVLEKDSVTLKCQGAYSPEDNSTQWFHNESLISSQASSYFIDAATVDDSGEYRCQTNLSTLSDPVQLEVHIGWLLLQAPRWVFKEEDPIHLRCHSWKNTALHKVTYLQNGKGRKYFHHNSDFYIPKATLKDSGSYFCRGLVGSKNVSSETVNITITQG

rituximab
Kd: 360 nM
